# According to the supplement of paper PMC12042874:
# ± gives the uncertainty stated by the source.
# Experiment: amyloid nucleation score (Sup35N fusion, yeast selection) (log enrichment); library NNK3; higher = more nucleation; inactive = no reads after selection
# Procedure, shortened: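 On medium lacking adenine and uracil, psi-negative yeast expressing peptides of 20 random codons fused to Sup35N were grown 7 days at 30°C after a 24-hour induction with 100 μM copper sulfate. Illumina sequencing of input and output plasmid inserts gave the reads, and sequences under 100 input reads were excluded. The nucleation score is the DiMSum log enrichment of output over input reads, centred on the mode score of non-aggregating sequences.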
row,Substance,amyloid nucleation score
1,YYLVSWYVTTVLKSGLLSVR,inactive
2,LNQSDRCKVCWYWLGHT,inactive
3,NWFCRGVIELPHPYAQTNFS,inactive
4,NGMGKRGQRSEESISQRSTG,inactive
5,VEGRCPLNH,inactive
6,PCLFSQDRVRKTRSHKVNAE,inactive
7,SACSVIFTEYINVSLLLSST,0.251 ± 0.42
8,RCSDWYHFTAQSS,inactive
9,KPVKTWNYLFWMCL,2.49 ± 0.072
10,GVSYSLCLLIGLNRIRMGMV,inactive
11,LIKWFSFRWLVTILVIDQTY,inactive
12,NVMVISMMTSR,inactive
13,SSIAMHCILIVFLKGLCVFR,inactive
14,MLFYCFYINGRAARTYKRYS,inactive
15,EDNTKLRSWGELLGVCGKLS,inactive
16,VEHSFYSLVCHRTDLF,inactive
17,YKLRVNSVETNCTEILTLVE,inactive
18,VFHRQERMLTPCT,inactive
19,YSTMLLVHYMFLKIE,inactive
20,LHDNRHYGNLTEAL,inactive
21,FNCSARNYGTRFFCLMRAGV,-0.654 ± 1.4
22,TKWVVASLVCKSAGKTGRVI,inactive

row,Substance,amyloid nucleation score
1,LFEPVIEILI,inactive
2,NQSCFMSAGNGSF,inactive
3,HNEHILSQ,inactive
4,RDGFN,inactive
5,LYSLT,inactive
6,PNYKNYLGGNRVVS,inactive
7,HFQIIC,inactive
8,DFWRTIEGKMSLALI,inactive
9,VHMNRSGSAALEFGMLWEYI,inactive
10,VYDWRGRVGD,inactive
11,LVSWSIA,inactive
12,YPFLSIGLYQCRS,inactive
13,FLLSVMRELSKYYYIIFSTS,inactive
14,FRVLDRSKKVNYRSFLYLIR,inactive
15,LGHGFWQFSYLG,inactive
16,SHKFMRCGPQMASGCNWELA,inactive
17,YKLERTRPDSFMVCERINGH,inactive
18,ERESKNLLQVAYSGYCIVWA,inactive
19,KDADMDLLSRYATRCGVSRL,inactive
20,YFGCSYTNQAFGRSDSSYVD,inactive
21,LYMYLGRVCMWHLRCHKRYN,inactive
22,VGGIRLRIE,inactive

row,Substance,amyloid nucleation score
1,FWGMLVEYLVNSQCYIKFE,inactive
2,WLSLFVIMPCLWGFCSMDSN,1.47 ± 0.11
3,CFANSSYLIGTCLRCACNDR,2.37 ± 0.072
4,GPIINVIS,inactive
5,QLAKG,inactive
6,SYWYACGKYADNSMER,inactive
7,LRRQTSHKS,inactive
8,SWLIR,inactive
9,TFLNFSVIGVTSLGTDRAYD,inactive
10,LRFAYTFFWYVRFRVRICFN,inactive
11,CFVGHADLKFMGFHWMVGEC,inactive
12,TSCFYFAMVFEQVDWDSVHT,1.58 ± 0.11
13,VISGVIVMWYAWMWAGYRVR,inactive
14,WSRSACMGEGNLDVFSVWLL,inactive
15,CYSLFSLPMKALRSISVRCW,1.52 ± 0.13
16,IFVQAYLRGSEICALGDWRL,inactive
17,FCLYTKLNVSIRGISDAYVY,inactive
18,ITDYMIQF,-0.66 ± 0.7
19,QPPAKSMWFSFDMLS,inactive
20,RKEMLKMRRFRSRGCWVILS,inactive
21,SAQNYTL,inactive
22,GSYLQGMRCVADWDNGEQLR,1.97 ± 0.091
